The values below are quoted from earlier work in PMC3000922.

The target in the series is integrin β3 cytoplasmic tail (Homo sapiens) (UniProt P05106). The series can be described thus: SPR. On the technique in general: SPR reads the build-up and loss of mass on a sensor chip optically.
Chain of UniProt P05106 (P05106 742-788): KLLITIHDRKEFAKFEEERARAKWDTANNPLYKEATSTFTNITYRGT

Consider “integrin αIIb cytoplasmic tail (from UniProt P08514)”, for which the Kd (as a rule, the free concentration of one partner at which half of the binding sites on the other are occupied at equilibrium, for simple one-to-one binding) was 7 µM.
